# Test results published in IntAct's records for PubMed 20018686.
# B1: Serine/threonine-protein kinase BIK1 (Arabidopsis thaliana (Mouse-ear cress)), O48814 (parent)
# chain: MGSCFSSRVKADIFHNGKSSDLYGLSLSSRKSSSTVAAAQKTEGEILSSTPVKSFTFNELKLATRNFRPDSVIGEGGFGCVFKGWLDESTLTPTKPGTGLVIAVKKLNQEGFQGHREWLTEINYLGQLSHPNLVKLIGYCLEDEHRLLVYEFMQKGSLENHLFRRGAYFKPLPWFLRVNVALDAAKGLAFLHSDPVKVIYRDIKASNILLDADYNAKLSDFGLARDGPMGDLSYVSTRVMGTYGYAAPEYMSSGHLNARSDVYSFGVLLLEILSGKRALDHNRPAKEENLVDWARPYLTSKRKVLLIVDNRLDTQYLPEEAVRMASVAVQCLSFEPKSRPTMDQVVRALQQLQDNLGKPSQTNPVKDTKKLGFKTGTTKSSEKRFTQKPFGRHLV
# partner: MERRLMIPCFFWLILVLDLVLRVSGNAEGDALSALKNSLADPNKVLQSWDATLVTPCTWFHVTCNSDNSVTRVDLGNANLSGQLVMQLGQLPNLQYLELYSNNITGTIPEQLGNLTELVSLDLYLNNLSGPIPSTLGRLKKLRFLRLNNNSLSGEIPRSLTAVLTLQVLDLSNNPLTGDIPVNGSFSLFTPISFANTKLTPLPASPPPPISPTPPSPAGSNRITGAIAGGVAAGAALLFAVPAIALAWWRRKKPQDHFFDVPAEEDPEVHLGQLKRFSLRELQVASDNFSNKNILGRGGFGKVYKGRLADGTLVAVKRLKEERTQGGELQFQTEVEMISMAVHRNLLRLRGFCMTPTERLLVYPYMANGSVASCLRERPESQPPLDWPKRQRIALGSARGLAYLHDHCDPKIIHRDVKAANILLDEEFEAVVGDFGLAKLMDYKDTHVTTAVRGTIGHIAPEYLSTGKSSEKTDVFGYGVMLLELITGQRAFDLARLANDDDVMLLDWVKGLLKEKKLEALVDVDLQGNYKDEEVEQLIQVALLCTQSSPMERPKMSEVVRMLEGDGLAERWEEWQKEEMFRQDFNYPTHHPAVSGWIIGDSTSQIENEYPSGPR
# B2: Serine/threonine-protein kinase BIK1 (Arabidopsis thaliana (Mouse-ear cress)), O48814 (parent)
# chain: B1 chain
# Variants of: B1
# Conditions: with bak1_arath BAK1, Q94F62
row,Variant,effect of a mutation on the interaction
1,T237A,disrupting interaction

# Variants of: B2
# Conditions: with fls2_arath FLS2, Q9FL28
# fls2_arath FLS2, Q9FL28, sequence (Q9FL28 whole entry): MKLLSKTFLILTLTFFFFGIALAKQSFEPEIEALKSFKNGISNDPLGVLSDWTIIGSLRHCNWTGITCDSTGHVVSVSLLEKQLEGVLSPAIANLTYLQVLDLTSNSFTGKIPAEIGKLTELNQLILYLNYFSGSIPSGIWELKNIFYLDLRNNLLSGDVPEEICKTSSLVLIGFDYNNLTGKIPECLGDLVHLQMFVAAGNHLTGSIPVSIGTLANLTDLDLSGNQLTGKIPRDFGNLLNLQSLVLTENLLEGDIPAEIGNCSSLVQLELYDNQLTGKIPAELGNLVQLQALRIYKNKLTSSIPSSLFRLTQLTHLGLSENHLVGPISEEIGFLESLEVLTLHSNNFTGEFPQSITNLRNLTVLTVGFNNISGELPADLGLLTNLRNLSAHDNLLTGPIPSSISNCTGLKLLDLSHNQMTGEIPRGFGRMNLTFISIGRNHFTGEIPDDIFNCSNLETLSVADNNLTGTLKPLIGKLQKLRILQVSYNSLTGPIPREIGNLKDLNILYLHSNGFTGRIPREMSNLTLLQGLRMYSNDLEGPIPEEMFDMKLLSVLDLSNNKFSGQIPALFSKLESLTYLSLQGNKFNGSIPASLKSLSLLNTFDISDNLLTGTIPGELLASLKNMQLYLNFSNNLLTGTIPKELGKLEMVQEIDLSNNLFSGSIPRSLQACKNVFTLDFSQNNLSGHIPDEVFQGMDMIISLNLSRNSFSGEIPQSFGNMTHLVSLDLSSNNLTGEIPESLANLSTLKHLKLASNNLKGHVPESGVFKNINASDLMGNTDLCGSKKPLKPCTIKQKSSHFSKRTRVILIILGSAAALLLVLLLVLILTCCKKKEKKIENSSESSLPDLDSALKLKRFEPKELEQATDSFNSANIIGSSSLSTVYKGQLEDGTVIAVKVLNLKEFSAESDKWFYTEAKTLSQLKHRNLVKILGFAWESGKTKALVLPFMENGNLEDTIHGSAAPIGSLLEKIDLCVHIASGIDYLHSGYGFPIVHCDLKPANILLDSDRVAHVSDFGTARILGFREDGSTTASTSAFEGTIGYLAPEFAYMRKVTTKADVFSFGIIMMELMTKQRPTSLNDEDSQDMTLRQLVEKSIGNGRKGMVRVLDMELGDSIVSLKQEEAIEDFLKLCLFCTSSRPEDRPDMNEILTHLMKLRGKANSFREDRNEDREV
row,Variant,effect of a mutation on the interaction
1,T237A,disrupting interaction
